Measurements reported in patent US20250042994A1 (HAINAN SIMCERE ZAIMING PHARMACEUTICAL, published 2025).

T1: human CD19 exon1-3-his protein (human, UniProt P15391 20-186, limits assumed)
T1 construct: made in HEK293E cells; also called membrane-distal end; not shown: His tag
T1 sequence (looked up): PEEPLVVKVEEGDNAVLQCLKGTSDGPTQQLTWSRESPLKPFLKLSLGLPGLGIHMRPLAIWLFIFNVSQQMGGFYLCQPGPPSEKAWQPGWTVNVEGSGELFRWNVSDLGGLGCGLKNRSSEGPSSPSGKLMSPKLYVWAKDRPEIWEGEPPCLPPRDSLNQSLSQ

T2: murine CD19 protein (murine, UniProt P25918 17-287, limits assumed)
T2 construct: bought protein; also called commercial murine CD19
T2 sequence (looked up): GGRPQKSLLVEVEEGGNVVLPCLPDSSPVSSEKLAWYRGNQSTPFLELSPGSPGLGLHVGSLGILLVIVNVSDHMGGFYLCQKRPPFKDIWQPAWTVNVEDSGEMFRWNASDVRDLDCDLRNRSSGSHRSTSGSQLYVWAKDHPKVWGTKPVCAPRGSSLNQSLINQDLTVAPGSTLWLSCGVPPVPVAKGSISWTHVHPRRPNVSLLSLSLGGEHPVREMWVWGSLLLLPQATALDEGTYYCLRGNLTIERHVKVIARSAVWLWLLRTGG

T3: Human CD19-his protein (human, UniProt P15391 20-291)
T3 construct: bought protein; also called human CD19 protein; recombinant human CD19-His; not shown: His tag
T3 sequence (looked up): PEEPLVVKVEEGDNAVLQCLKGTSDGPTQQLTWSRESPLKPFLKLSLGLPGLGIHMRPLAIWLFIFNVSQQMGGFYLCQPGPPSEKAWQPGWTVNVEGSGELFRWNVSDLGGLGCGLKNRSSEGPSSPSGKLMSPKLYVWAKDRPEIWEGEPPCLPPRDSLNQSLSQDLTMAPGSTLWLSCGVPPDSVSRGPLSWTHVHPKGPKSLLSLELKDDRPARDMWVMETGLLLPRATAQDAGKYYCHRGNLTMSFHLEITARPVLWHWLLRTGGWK

B1: F4.49.11 (antibody, human IgG1, V domains shown)
VH: DVQLRASGPGLVKPSQSLSLTCSVTGYSITSGYYWNWIRQFPGNKLEWMGCISYDGTNNYNPSLKNRISFTRDTSKNQFFLNLNSVTTEDSATYYCARRVYYRYDGVVDYWGQGTSVTVSS
VL: ENVLTQSPAIMSASPGEKVTMTCSASSSVSYIHWYQQKSSTAPKLWIYDTSKLASGVPGRFSGSRSRNSYSLTISSMEAEDVATYYCFQGSGYPLTFGSGTKLEIK
notes: human-murine chimeric antibody, human IgG1
B2: F3.3.10 (antibody, human IgG1, V domains shown)
VH: DVQLQESGPGLAKLSQSLSLTCSVTGYSITSGYYWNWIRQFPGNKLEWMGHISYDGNNNYNPSLKNRISITRDTSKNQFFLKLNSVTTEDTATYYCARENYSNYYFDYWGQGTTLTVSS
VL: DIVLTQSPASLAVSLGQRATISCRASQSVSKSSYTYIHWYQQKPGQPPKLLIKYASILQSGVPARFSGSGSGTDFTLNFHPVEEEDTATYYCQHSWEIPYTFGGGTKLEIK
notes: as for B1
B3: F4.37.6 (antibody, human IgG1, V domains shown)
VH: QVQLQQSGAELARPGASVKLSCKASGYTFTSFWMQWLKQRPGQGLEWIGTIYPGDGDTRYTQKFKGKATLTADKSSNTAYMQLSSLASEDSAVYYCARGALSNYGGFAYWGQGTLVTVSA
VL: NIVLTQSPASLAVSLGQRATISCRASESVDSYGHSFMHWYQQKPGQPPKLLIYLASNLESGVPARFSGSGSRTDFTLTIDPVEADDAATYYCQQNNEDPWTFGGGTKLEIK
notes: as for B1
B4: F6.5.20 (antibody, human IgG1, V domains shown)
VH: QVQLQQPGAELVKPGASVKLSCKASGYTFTSYWMQWVKQRPGQGLEWIGEIDPSDSYTNYNQKFKGKASLTVDTSSSTAYMQLSSLTSEDSAVYYCARWGLLRNYYVMDYWGQGTSVTVSS
VL: EIVLTQSPTTMAASPGEKITITCSASSSISSNYLHWYQQKPGFSPKLLIYRTSNLASGVPARFSGSGSGTSYSLTIGTMEAEDVATYYCQQGSSIPRMLTFGAGTKLELK
notes: as for B1
B5: F4.35.5 (antibody, human IgG1, V domains shown)
VH: EIQLQQSGPELVKPGASVKVSCKASGYAFTSYNMYWVKQSHGKSLEWIGYIDPYNGDTRYNQKFKGKATLTVDKSSSTAYMHLNSLTSEDSAVYYCTRSGTGRDYWGQGTTLTVSS
VL: QIVLTQSPAIMSASPGEKVTMTCSASSSISYMFWFQQKPGSSPRLLIYDTSSLASGVPVRFSGSGSGTSYTLTISRMEAEDAATYYCQQWSNYPYTFGGGTKLEMK
notes: as for B1
B6: F6.12.12 (antibody, human IgG1, V domains shown)
VH: DVQLQESGPGLVKPSQSLSLTCSVTGYSITSGYYWIWIRQFPGNKLEWMGYISYDASNKYKPSLKNRISITRDTSKNQFFLKLNSVTAEDTATYFCAREDLRGYFDVWGTGTSVTVSS
VL: DIVLTQSPASLAVSLGRRATISCRASQSVSTSGFSYMHWYQQKPGQPPNLLIKYASILQSGVPARFSGSGSGTDFILNIHPVEDVDTATYYCQHSWGIPFTFGSGTKLEIK
notes: as for B1
B7: F6.2.9 (antibody, human IgG1, V domains shown)
VH: QVQLQQSGAELVKPGASVKISCKASGYAFSSYWMNWVKQRPGKGLEWIGQIYPGDGDTNYNGKFKGKATLTADKSSSTGYMQLSSLTSEDSAVYFCARSRITSVVDWYFDVWGTGTTVTVSS
VL: QIVLSQSPAILSASPGEKVTMTCRASSSVSYMHWYQQKPGSSPKPWIYATSNLASGVPARFSGSGSGTSYSLTISRVEAEDAATYYCQQWSSNPPTFGAGTKLELK
notes: as for B1
B8: F4.96.6 (antibody, human IgG1, V domains shown)
VH: EIQLQQSGPELVKPGASVKVSCKASGYAFSAYNIYWVKQSHGKSLEWIGYIDPYNSGTTYNQKFRGKATLTVDKSSNTAYMHLSSLTSEDSAVYYCTRDGDAMDYWGQGTSVTVSS
VL: EILLTQSPAIIAASPGEKVTITCSASSGVIYMNWYQQKPGSSPKIWIYDVSTLASGVPARFSGSGSGTSFSFTINSMEAEDVATYYCQQRSSYPYTFGGGTKLEIK
notes: as for B1
B9: F4.276.12 (antibody, human IgG1, V domains shown)
VH: EIQLQQSGPELVKPGASVKVSCKASGYAFSAYNMYWVKQSHGKSLEWIGYIDPYNGGTNYNQKFKGKATLTVDKSSSTAYMHLNSLTSEDSAVYYCARDGYEVTYWGQGTLVTVSA
VL: QIVLTQSPALMSASLGEEITLTCSASSSVTYMHWSQQKSGTSPRLLIYSTSNLASGVPSRFSGSGSGTFYSLTISSVEAEDAADYYCHQWSSYPWTFGGGTKLEIK
notes: as for B1
B10: F4.58.6 (antibody, human IgG1, V domains shown)
VH: QVQLQQPGAELVKPGASVKLSCKASGYTFTSYWMHWVKQRPGQGLEWIGEIDPSDSYSNYNQKFKGKATLTVDKSSSTAYMQLSSLTSEDSAVYYCARSNYGSSYGYFDVWGAGTTVTVSS
VL: QIVLTQSPAIMSASPGEKVTMTCSVSSSLSYMHWYQQKPGTSPKRWIYDTSKLASGVPARFSGSGSGTSYSLTISSMEAEDAATYYCHQRSSYPTFGGGTKLEIK
notes: as for B1

Columns and labels:
[1] = target: T1, human CD19 exon1-3-his protein; test: ELISA, coated at 2 ug/mL
Protocol: (§1) Human CD19-his protein (purchased from ACROBiosystems, catalog number: CD9-H52H2) was diluted with PBS to a final concentration of 4 μg/mL, and then added to a 96-well ELISA plate at 100 μl/well. The plate was sealed with a plastic film and incubated overnight at 4° C., the plate was washed 2 times with PBS the next day, and then a blocking solution [PBS+2% (w/w) BSA] was added for blocking at room temperature for 2 h. The blocking solution was poured off, and 100 nM gradiently diluted CD19 chimeric antibody or control antibody was added at 50 μl/well. After incubation at 37° C. for 2 h, the plate was washed 3 times with PBS. […] TMB substrate was added at 50 μl/well, and incubated at room temperature for 10 min, and then a stop solution (1.0 N HCl) was added at 50 μl/well. The OD450 nm values were read by an ELISA microplate reader (Multimode Plate Reader, EnSight, purchased from Perkin Elmer).
CD19 protein contains 4 exons in the extracellular region, in which exons 1-3 are located at the membrane-distal end and exon 4 is located at the membrane-proximal end. […] To identify the distribution of antigen binding epitopes of the chimeric antibodies, human CD19 exon 1-3-His (membrane-distal end) was used to coat at 2 μg/mL according to the ELISA method in example 5.1.

[2] = target: T2, murine CD19 protein; test: ELISA, coated murine CD19
Protocol: as §1
In order to detect the species cross-binding activity of the chimeric antibodies, an ELISA plate was coated with commercial murine CD19 (ACROBiosystems, catalog number: 50510-M08H) and monkey CD19 (ACROBiosystems, catalog number: 90051-C08H), respectively, and the ELISA detection was performed according to the method in example 5.1.

[3] = target: T3, Human CD19-his protein; test: ELISA, antibody at 10 nM
Protocol: as §1

[4] = target: T3, Human CD19-his protein; test: ELISA, antibody at 100 nM
Protocol: as §1

[5] = target: T3, Human CD19-his protein; test: ELISA, antibody at 0.01 nM
Protocol: as §1

[6] = target: T3, Human CD19-his protein; test: ELISA, antibody at 0.10 nM
Protocol: as §1

[7] = target: T3, Human CD19-his protein; test: ELISA, antibody at 1.00 nM
Protocol: as §1

[8] = target: T3, Human CD19-his protein; test: ELISA, antibody at 0.001 nM
Protocol: as §1

[9] = target: T3, Human CD19-his protein; test: ELISA, antibody at 0.0001 nM
Protocol: as §1

Binder	binding result [1]	binding result [2]	OD450 [3]	OD450 [4]	OD450 [5]	OD450 [6]	OD450 [7]	OD450 [8]	OD450 [9]
B1	no binding	no binding	0.85	1.16	0.07	0.13	0.48	0.05	0.04
B2	no binding	no binding	0.42	0.59	0.05	0.08	0.21	0.05	0.05
B3	no binding	no binding	1	1.08	0.2	0.6	0.8	0.09	0.07
B4	no binding	no binding	0.43	0.63	0.1	0.34	0.45	0.06	0.05
B5	no binding	no binding	0.65	0.87	0.07	0.25	0.5	0.05	0.05
B6	no binding	no binding	1.08	1.32	0.1	0.39	0.71	0.06	0.05
B7	no binding	no binding	0.26	0.33	0.06	0.08	0.13	0.06	0.06
B8	no binding	no binding	1.16	1.64	0.11	0.29	0.91	0.06	0.05
B9	no binding	no binding	1.2	1.43	0.13	0.4	1.07	0.06	0.05
B10	no binding	no binding	0.8	0.94	0.09	0.3	0.67	0.05	0.05
